Laboratory results: article PMC12884772, “Macrophagic Sclerostin Loop2‐ApoER2 Interaction Required by Sclerostin for Cardiovascular Protective Action” (Advanced Science, 2025)
pKd: −log10 of the molar value.

Legend:
His-sclerostin loop2 = assay: BLI; Octet RED96e; Figure 6B, 'ApoER2 to sclerostin' and 'to sclerostin loop2'; the methods tell of biotin-ApoER2 loaded on streptavidin biosensors, PBS with 0.02% Tween 20; partner loaded in this panel not given
[1] = target: full-length His-sclerostin (not stated (recombinant human and mouse sclerostin used in the paper)) (UniProt Q99P68); assay: as above
Sequence of full-length His-sclerostin (not stated (recombinant human and mouse sclerostin used in the paper)) (Q99P68 24-211): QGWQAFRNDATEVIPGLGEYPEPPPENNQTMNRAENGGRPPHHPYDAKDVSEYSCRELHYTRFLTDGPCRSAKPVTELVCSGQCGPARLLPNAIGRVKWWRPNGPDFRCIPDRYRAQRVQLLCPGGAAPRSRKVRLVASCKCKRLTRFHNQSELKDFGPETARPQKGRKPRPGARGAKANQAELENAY

[2] = target: ApoER2 protein (R&D, 3520-AR) (UniProt Q14114); assay: BLI; Octet RED96e; Figure S6B, 'sclerostin to ApoER2'; partner loaded in this panel not given
Sequence of ApoER2 protein (R&D, 3520-AR) (Q14114 42-826): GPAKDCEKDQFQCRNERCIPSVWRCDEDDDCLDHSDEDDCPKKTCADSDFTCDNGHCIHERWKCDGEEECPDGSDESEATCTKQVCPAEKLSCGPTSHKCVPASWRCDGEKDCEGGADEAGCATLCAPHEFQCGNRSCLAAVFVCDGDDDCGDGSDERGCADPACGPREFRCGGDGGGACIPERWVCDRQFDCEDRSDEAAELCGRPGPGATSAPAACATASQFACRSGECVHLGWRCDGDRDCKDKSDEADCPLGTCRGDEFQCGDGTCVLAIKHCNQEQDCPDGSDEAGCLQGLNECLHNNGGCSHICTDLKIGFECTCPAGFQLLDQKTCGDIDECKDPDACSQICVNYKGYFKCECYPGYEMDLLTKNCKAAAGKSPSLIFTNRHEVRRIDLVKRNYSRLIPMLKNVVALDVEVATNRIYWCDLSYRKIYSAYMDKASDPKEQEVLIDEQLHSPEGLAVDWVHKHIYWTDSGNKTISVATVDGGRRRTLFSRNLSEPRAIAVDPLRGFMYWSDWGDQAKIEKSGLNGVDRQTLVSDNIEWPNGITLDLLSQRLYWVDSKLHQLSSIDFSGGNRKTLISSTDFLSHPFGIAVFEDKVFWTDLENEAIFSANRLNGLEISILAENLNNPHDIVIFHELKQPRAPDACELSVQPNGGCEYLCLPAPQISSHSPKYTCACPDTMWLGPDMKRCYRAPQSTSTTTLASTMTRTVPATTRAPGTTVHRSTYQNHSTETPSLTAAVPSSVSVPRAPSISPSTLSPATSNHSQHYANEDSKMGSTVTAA

Sequence of full-length His-sclerostin (Q99P68 24-211): as the sequence (Q99P68 24-211) above

In the case of “ApoER2 protein (R&D, 3520-AR) (from UniProt Q14114 42-826) (receptor)”, the pKd (His-sclerostin loop2) was 7.64 and the pKd [1] was 8.42.
With “full-length His-sclerostin (from UniProt Q99P68 24-211) (natural protein)” the pKd [2] was 8.68.
